In patent US20110038790A1 one finds fold greater IC50 than murine AEF in solution and IC50 data, which are given here for two molecules.

Test [1] has as its target mAbs 2A4, 8G9 and 7D8, told of as a group. The test is described as follows: competition ELISA, told for the three mAbs together.
Test [2] shares this target. In words: competition ELISA, value told for the three mAbs together.

B1: human AA amyloid (renal AA amyloid extract or tissue deposits) (protein, UniProt P0DJI8 19-94, looked up)
chain: RSFFSFLGEAFDGARDMWRAYSDMREANYIGSDKYFHARGNYDAAKRGPGGAWAAEVITDARENIQRFFGHGAEDS
In test [1], B1 had a fold greater IC50 than murine AEF in solution of 6 to 44 fold.

B2: murine AA amyloid (AA fibrils, amyloid enhancing factor extract or tissue deposits) (protein, mouse, UniProt P05367 20-94, looked up)
chain: GFFSFIGEAFQGAGDMWRAYTDMKEAGWKDGDKYFHARGNYDAAQRGPGGVWAAEKISDARESFQEFFGRGHEDT
B2 showed an IC50 in test [2] of 20 µg/mL.
